Laboratory results as given in US20260191954A1, “COMPOSITIONS AND METHODS FOR NEOADJUVANT TREATMENT IN CANCER” (INNATE PHARMA, priority 2022, published 2026).

Experiments:
OAW42 (CD39+) cells = assay: eATP release in OAW42 (CD39+) cells with IPH5201 and docetaxel; type: cell-based; conditions: IPH5201 10 or 50 μg/mL + docetaxel dose range, 30 h, FIG. 3B
Experimental: (§1) OAW42 (CD39+) cells were incubated with 10 or 50 μg/mL of IPH5201 and treated with a dose range of docetaxel. The measure of eATP release was performed 30 h after docetaxel treatment. eATP was measured in the cell culture supernatant with a luminescent-based assay (CellTiter-Glo®) and expressed in Luminescence Arbitrary Unit (AU). Means+/−SD.

[1] = biological target: T1, recombinant human CD39 protein (huCD39) (Homo sapiens, UniProt P49961); assay: eATP release by H1703 (CD39-) cells incubated with recombinant huCD39, with or without IPH5201, then docetaxel; type: cell-based; conditions: H1703 cells + huCD39 400 ng/ml + docetaxel 0.1 μM; IPH5201 10 μg/mL; 40 h; FIG. 3A
T1 sequence (P49961 38-478 limits assumed): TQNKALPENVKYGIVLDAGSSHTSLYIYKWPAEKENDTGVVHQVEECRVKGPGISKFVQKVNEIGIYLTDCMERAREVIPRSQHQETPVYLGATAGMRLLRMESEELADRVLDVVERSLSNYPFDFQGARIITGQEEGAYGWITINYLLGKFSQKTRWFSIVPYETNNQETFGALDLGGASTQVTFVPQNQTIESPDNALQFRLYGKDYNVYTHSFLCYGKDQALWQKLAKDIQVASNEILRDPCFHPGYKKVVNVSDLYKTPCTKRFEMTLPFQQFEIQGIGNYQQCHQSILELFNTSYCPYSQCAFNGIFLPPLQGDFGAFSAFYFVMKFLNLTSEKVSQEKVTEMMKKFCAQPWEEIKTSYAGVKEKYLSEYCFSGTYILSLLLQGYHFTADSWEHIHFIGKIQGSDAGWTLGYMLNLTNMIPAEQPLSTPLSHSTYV
Experimental: H1703 (CD39−) cells were incubated with recombinant human CD39 protein (huCD39) (400 ng/ml) to mimic soluble CD39 in tumor microenvironment with or without IPH5201 (humanized anti-CD39 antibody having the respective heavy and light chain amino acid sequences of SEQ ID NOS: 10 and 11) at 10 μg/mL and then treated with docetaxel (0.1 μM). The measure of extracellular ATP (eATP) release was performed 40 h after docetaxel treatment.
as §1

[2] = Pharmacokinetics of IPH5201 in phase 1 patients; type: in vivo, human
Experimental: A first-in-human, multicentre, non-randomised, open-label, phase 1 study was conducted in order to assess the safety, efficacy, pharmacokinetics (PK) and pharmacodynamics (PD) of IPH5201±durvalumab (Imfinzi™) in patients with advanced solid tumours. The study consisted of two consecutive dose-escalation parts: • Part 1: Ascending doses of IPH5201 (100, 300, 1000 and 3000 mg) every 3 weeks (Q3W). • Part 2: Ascending doses of IPH5201 (300, 1000 and 3000 mg) and 1500 mg durvalumab Q3W.
PK/PD modelling and simulation were used to guide selection of doses. IPH5201 PK data from 45 patients and PD data of free membrane CD39 (mCD39) occupancy on monocytes from 43 patients were available.
On the left hand panel, curves from bottom to top represent 100 mg, 300 mg, 1000 mg and 3000 mg doses of IPH5201; on the right hand panel curves from bottom to top represent 300 mg, 1000 mg (up to the 21 day time point) and 3000 mg doses of IPH5201. The PK of IPH5201 was non-linear at ≤300 mg and linear at ≥1000 mg. Free soluble CD39 was above the lower limit of quantitation at cycle 1, day 2 or later in 6/40 patients (n=2, 100 mg; n=1, 1000 mg; n=3, 3000 mg).

[3] = biological target: T2, membrane-bound CD39 on immune cells (Homo sapiens, UniProt P49961); assay: Free CD39 on monocytes and B cells in patient blood (flow cytometry); type: in vivo
T2 construct: To assess free CD39 on monocytes and B cells, blood samples are spiked with an antibody; endogenous in cells; host or cells: monocytes and B cells in patients' blood
T2 sequence (P49961 1-510): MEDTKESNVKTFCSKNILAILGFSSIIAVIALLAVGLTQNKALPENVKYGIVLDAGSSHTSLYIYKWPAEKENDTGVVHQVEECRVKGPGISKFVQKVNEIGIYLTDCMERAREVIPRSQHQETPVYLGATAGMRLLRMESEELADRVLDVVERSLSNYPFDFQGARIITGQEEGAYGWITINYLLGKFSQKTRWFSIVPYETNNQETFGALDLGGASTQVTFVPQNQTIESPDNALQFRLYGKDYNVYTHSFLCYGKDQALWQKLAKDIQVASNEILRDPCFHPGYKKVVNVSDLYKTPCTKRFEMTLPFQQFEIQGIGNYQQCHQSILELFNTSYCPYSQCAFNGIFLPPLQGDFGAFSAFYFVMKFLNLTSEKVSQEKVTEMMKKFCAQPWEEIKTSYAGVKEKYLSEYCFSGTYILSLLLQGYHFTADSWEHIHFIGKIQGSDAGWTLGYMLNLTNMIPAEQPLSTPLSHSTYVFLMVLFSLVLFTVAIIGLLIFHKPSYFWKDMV
Experimental: CD39 occupancy by IPH5201 in samples from patients was determined by assessing free soluble CD39 and free membrane bound CD39.
To assess free CD39 on monocytes and B cells, blood samples are spiked with an antibody having the VH and VL of IPH5201 and a mouse Fc domain and labelled with a fluorochrome. A second non-competing anti-CD39 monoclonal antibody labelled with a distinct fluorochrome is used to bind to a site on CD39 distinct from the capture antibody. CD14, CD19 and CD45 are detected by incubation with anti-CD14, CD19 and CD45 monoclonal antibodies each labelled with a distinct fluorochrome. Binding is detected by flow cytometry.

[4] = serum IPH5201, fixed doses Q3W, mono or with durvalumab, FIG. 12

B1: IPH5201: humanized anti-CD39 antibody having the respective heavy and light chain amino acid sequences of SEQ ID NOS: 10 and 11 (antibody)
heavy: QVQLVQSGAEVKKPGASVKVSCKASGYTFTDYNMHWVRQAPGQRLEWIGYIVPLNGGSTFNQKFKGRATITVDTSARTAYMELSSLRSEDTAVYYCARGGTRFAYWGQGTLVTVSSASTKGPSVFPLAPSSKSTSGGTAALGCLVKDYFPEPVTVSWNSGALTSGVHTFPAVLQSSGLYSLSSVVTVPSSSLGTQTYICNVNHKPSNTKVDKRVEPKSCDKTHTCPPCPAPEAEGAPSVFLFPPKPKDTLMISRTPEVTCVVVDVSHEDPEVKFNWYVDGVEVHNAKTKPREEQYNSTYRVVSVLTVLHQDWLNGKEYKCKVSNKALPSSIEKTISKAKGQPREPQVYTLPPSREEMTKNQVSLTCLVKGFYPSDIAVEWESNGQPENNYKTTPPVLDSDGSFFLYSKLTVDKSRWQQGNVFSCSVMHEALHNHYTQKSLSLSPGK
light: DIVMTQSPDSLAVSLGERATINCRASESVDNFGVSFMYWFQQKPGQPPKLLIYGASNQGSGVPDRFSGSGSGTDFTLTISSLQAEDVAVYYCQQTKEVPYTFGGGTKVEIKRTVAAPSVFIFPPSDEQLKSGTASVVCLLNNFYPREAKVQWKVDNALQSGNSQESVTEQDSKDSTYSLSSTLTLSKADYEKHKVYACEVTHQGLSSPVTKSFNRGEC
eATP accumulation (OAW42 (CD39+) cells): eATP accumulated significantly
eATP release reduced by added huCD39 [1]: restored
population PK model best describing IPH5201 PK ([2]; PK data from 45 patients): 2-compartment model with parallel linear and saturatable kinetics
dose range in which PK was linear [2, 4]: ≥ 1000 mg
dose range in which PK was non-linear [2, 4]: ≤ 300 mg
free CD39 at C2D1, monocytes ([3]; 100 mg IPH5201 dose, cycle 2 day 1): full rebound
free CD39 at C2D1, monocytes ([3]; 300 mg IPH5201 dose, cycle 2 day 1): partial rebound
free CD39 at C2D1, B-cells ([3]; only the 100 mg IPH5201 dose, cycle 2 day 1): rebound
dose at which IPH5201 saturated binding of membrane-bound CD39 on immune cells ([3]; patient samples, FIG. 11B): 3000 mg
